Reference: US20140017260A1

target: Runx2; experiment: cell-based or functional assay

suppression of Runx2 activation of the p6OSE2-Luc reporter construct | Substance
75% | Rorβ ΔAD (deletion of the activation domain), C-terminal FLAG (receptor)
88% | Rorβ ΔLBD (deletion of the ligand binding domain), C-terminal FLAG (receptor)

Second part, the substance before the results:

Substance | suppression of Runx2 activation of the p6OSE2-Luc reporter construct
Rorβ E28A/G29A double-point mutant in the DBD, C-terminal FLAG (receptor) | 96%
Rorβ ΔHinge (deletion of the Hinge domain), C-terminal FLAG (receptor) | 28%
retinoic acid receptor-related orphan receptor beta (Rorβ), wild-type, with C-terminal FLAG epitope | 91%
